The results in this text go back to patent US20210363265A1 (INVENRA, published 2021).

Changes are numbered by the printed parent chain. A value given as a limit tells only on which side of the number the result lay.

In test [1] the target is T1, OX40: 66-214-Fc (human).
T1 construct: Immobilized on the BLI sensor; also called first truncation
In words: BLI, OX40-Fc fragment immobilized on sensor.

Test [2] concerns the target T2, OX40: 108-214-Fc (human).
T2 construct: Immobilized on the BLI sensor
Nature of the test: BLI, OX40-Fc fragment immobilized on sensor.

The target of test [3] is T3, OX40: 127-214-Fc (human).
T3 construct: Immobilized on the BLI sensor
In words: BLI, OX40-Fc truncation immobilized on sensor.

Test [4] has as its target T4, OX40 on T cells (primary naive CD4+ T cells; Jurkat/OX40 reporter cells) (UniProt P43489 29-277, limits assumed).
T4 sequence (looked up): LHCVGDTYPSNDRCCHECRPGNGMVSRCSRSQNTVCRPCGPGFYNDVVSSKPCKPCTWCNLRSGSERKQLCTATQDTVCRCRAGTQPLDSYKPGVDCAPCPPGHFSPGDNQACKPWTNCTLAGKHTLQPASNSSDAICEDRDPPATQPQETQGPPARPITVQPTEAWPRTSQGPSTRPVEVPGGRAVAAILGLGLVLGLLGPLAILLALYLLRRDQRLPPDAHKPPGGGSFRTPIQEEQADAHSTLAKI
In words: cell-based or functional assay.

T3 sequence (chain, as listed by the source): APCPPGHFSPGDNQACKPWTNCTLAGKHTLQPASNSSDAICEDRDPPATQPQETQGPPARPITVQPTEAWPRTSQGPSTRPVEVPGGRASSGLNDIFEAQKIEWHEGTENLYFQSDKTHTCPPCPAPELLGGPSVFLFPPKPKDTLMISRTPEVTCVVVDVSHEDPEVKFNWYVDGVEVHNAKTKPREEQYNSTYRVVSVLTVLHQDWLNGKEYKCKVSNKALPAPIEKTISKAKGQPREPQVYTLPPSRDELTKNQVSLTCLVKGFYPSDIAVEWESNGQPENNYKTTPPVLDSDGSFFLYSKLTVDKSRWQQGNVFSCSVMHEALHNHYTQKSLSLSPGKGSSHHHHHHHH
T2 sequence (chain, as listed by the source): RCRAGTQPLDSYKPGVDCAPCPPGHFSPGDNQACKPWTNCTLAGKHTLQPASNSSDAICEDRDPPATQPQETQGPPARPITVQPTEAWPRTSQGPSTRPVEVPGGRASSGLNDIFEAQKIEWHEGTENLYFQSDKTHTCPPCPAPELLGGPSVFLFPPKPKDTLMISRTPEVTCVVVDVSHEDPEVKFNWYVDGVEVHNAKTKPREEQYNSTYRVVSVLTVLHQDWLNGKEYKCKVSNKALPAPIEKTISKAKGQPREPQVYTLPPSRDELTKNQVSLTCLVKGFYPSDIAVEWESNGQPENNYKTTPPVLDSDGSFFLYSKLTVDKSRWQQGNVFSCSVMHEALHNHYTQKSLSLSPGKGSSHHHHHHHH
T1 sequence (chain, as listed by the source): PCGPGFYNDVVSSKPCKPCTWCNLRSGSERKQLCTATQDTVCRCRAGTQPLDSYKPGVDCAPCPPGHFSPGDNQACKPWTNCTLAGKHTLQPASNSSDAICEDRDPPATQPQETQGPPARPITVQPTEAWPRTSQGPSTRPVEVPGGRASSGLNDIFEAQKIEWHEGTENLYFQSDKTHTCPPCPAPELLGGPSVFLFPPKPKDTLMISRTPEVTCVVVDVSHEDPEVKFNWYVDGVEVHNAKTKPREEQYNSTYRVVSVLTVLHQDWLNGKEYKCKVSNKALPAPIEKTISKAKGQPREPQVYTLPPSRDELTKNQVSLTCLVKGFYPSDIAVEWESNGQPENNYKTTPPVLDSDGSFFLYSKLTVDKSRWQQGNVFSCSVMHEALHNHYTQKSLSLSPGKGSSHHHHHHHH

B1: GSK3174998 (antibody, human IgG1, kappa, V domains shown)
VH: EVKLEESGGGLVQPGGSMKLSCAASGFTFSDAWMDWVRQSPEKGLEWVAEIRSKANNHATYYAESVNGRFTISRDDSKSSVYLQMNSLRAEDTGIYYCTWGEVFYFDYWGQGTTLTVSS
VL: DIQMTQSPSSLSASLGGKVTITCKSSQDINKYIAWYQHKPGKGPRLLIHYTSTLQPGIPSRFSGSGSGRDYSFSISNLEPEDIATYYCLQYDNLLTFGAGTKLELKR
notes: also called Clinical mAB; clinical
As to B1, in test [1], the binding result is recorded as “binds”.

B2: Tavolixizumab (IgG1-kappa) (antibody, V domains shown)
VH: QVQLQESGPGLVKPSQTLSLTCAVYGGSFSSGYWNWIRKHPGKGLEYIGYISYNGITYHNPSLKSRITINRDTSKNQYSLQLNSVTPEDTAVYYCARYKYDYDGGHAMDYWGQGTLVTVSS
VL: DIQMTQSPSSLSASVGDRVTITCRASQDISNYLNWYQQKPGKAPKLLIYYTSKLHSGVPSRFSGSGSGTDYTLTISSLQPEDFATYYCQQGSALPWTFGQGTKVEIKR
B2: the figures for the binding result in test [2] and in test [3] were “binds” and “no binding”, respectively.

B3: Pogalizumab (IgG1-kappa) (antibody, V domains shown)
VH: EVQLVQSGAEVKKPGASVKVSCKASGYTFTDSYMSWVRQAPGQGLEWIGDMYPDNGDSSYNQKFRERVTITRDTSTSTAYLELSSLRSEDTAVYYCVLAPRWYFSVWGQGTLVTVSS
VL: B2 VL with K53R, H55R, Y71F, S92H, A93T, W96P
notes: also called Pagolizumab
For the molecule B3, the results for the binding result in test [2] and in test [3] were “binds” and “no binding”, respectively.

B4: OX40:24-24×11 (bispecific antibody)
chain 1: not shown
chain 2: EVQLVESGGGLVQPGGSLRLSCAASGFTFLSYYIHWVRQAPGKGLEWVAYIDPYSGGTDYADSVKGRFTISADTSKNTAYLQMNSLRAEDTAVYYCARVGLSFYAQEPVLDYWGQGTLVTVSSASPREPQVYTDPPSRDELTKNQVSLTCLVKGFYPSDIAVEWESNGQPENNYKTTPPVLDSDGSFFLYSKLTVDKSRWQQGNVFSCSVMHEALHNHYTQKSLSLSGEC
chain 3: DIQMTQSPSSLSASVGDRVTITCRASQSVSSAVAWYQQKPGKAPKLLIYSASSLYSGVPSRFSGSRSGTDFTLTISSLQPEDFATYYCQQYTSHPGTFGQGTKVEIKRTVAAPSVFIFPPSDEQLKSGTASVVCLLNNFYPREAKVQWKVDNALQSGNSQESVTEQDSKDSTYSLSSTLTLSKADYEKHKVYACEVTHQGLSSPVTKSFNRGECDKTHTCPPCPAPELLGGPSVFLFPPKPKDTLMISRTPEVTCVVVDVSHEDPEVKFNWYVDGVEVHNAKTKPREEQYNSTYRVVSVLTVLHQDWLNGKEYKCKVSNKALPAPIEKTISKAKGQPREPQVCTLPPSREEMTKNQVSLSCAVKGFYPSDIAVEWESNGQPENNYKTTPPVLDSDGSFFLVSKLTVDKSRWQQGNVFSCSVMHEALHNHYTQKSLSLSPGK
chain 4: EVQLVESGGGLVQPGGSLRLSCAASGFTFSSYVIHWVRQAPGKGLEWVAYIFPYGGTTYYADSVKGRFTISADTSKNTAYLQMNSLRAEDTAVYYCARGYYYVSDRVMDYWGQGTLVTVSSASTKGPSVFPLAPSSKSTSGGTAALGCLVKDYFPEPVTVSWNSGALTSGVHTFPAVLQSSGLYSLSSVVTVPSSSLGTQTYICNVNHKPSNTKVDKKVEPPKSC
Take B4: in test [4], the “antibody concentration at peak T cell proliferation” value (shortened to “antibody concentration”) amounted to 10 nM.

B5: OX40:24-24(WEE)×11 (bispecific antibody)
chain 1: not shown
chain 2: B4 chain 2
chain 3: B4 chain 3
chain 4: B4 chain 4
For B5, the “antibody concentration” value in test [4] is 10 nM.

B6: OX40:24(WEE)-11×11 (bispecific antibody)
chain 1: not shown
chain 2: B4 chain 4
chain 3: B4 chain 3
chain 4: B4 chain 2
As for B6, the “antibody concentration” value in test [4] was less than 10 nM.

B7: OX40:24-11×11 (bispecific antibody)
chain 1: not shown
chain 2: B4 chain 4
chain 3: B4 chain 3
chain 4: B4 chain 2
For B7, the “antibody concentration” value in test [4] is less than 10 nM.
